Laboratory results published in patent US20240091321A1.

What was measured:
[1] = biological target: Insulin Receptor; assay: SPR; data not shown
[2] = biological target: CI-MPR receptor; assay: CIMPR binding assay, PPT1 conditioned media, dilution starting at 50 nM, bound PPT1 activity; the table prints no units, units of the axes
[3] = biological target: CI-MPR receptor; assay: CIMPR binding assay, PPT1 conditioned media, curves starting at 25 nM, bound PPT1 activity; the table prints no units, units of the axes

Kd [1] [nM] | Bmax [2] [nmol/mL/h] | Kd [2] [nM] | Bmax [3] [nmol/mL/h] | Kd [3] [nM] | Substance
8 | – | – | – | – | Insulin (from UniProt P01308 25-54; P01308 90-110) (ligand)
– | 54.4 | 2.7 | 54.5 | 2.71 | PPT1 control (enzyme)
